From paper PMC12167710 (2024)

Legend:
[1] = biological target: recombinant mouse IgG1κ isotype control antibody (clone P3.6.2.8.1) (mouse, UniProt P01868 = IgG part); assay: BLI
[2] = biological target: recombinant human IgG1λ isotype control antibody (clone AbD00264_hIgG1) (human, UniProt P01857 = IgG part); assay: BLI

koff [1] [s⁻¹]	koff [2] [s⁻¹]	Binder
1.18e-05	–	anti-mouse κ VHH (TP1170) (VHH) VHH: QVQLVESGGGWVQPGGSLRLSCAASGFTFSDTAMMWVRQAPGKGREWVAAIDTGGGYTYYADSVKGRFTISRDNAKNTLYLQMNSLKPEDTARYYCAKTYSGNYYSNYTVANYGTTGRGTLVTVSS
–	0.000246	anti-human λ VHH (HuFab lambda 1) (VHH) VHH: QVQLQDSGGGLVQPGGSLRLSCAASGFTLDYYAIGWFRQAPGKEREGVSCISSSDGSSDGYTYYADSVKGRFTISRDNAKNTVYLQMNNLKPEDTAVYYCAARLFGVATTDPSYFDSWGQGTQVTVSS
